± gives the uncertainty stated by the source.
Assay: self-splicing fitness, log relative to wild type (ln ratio); higher = more splicing; Tetrahymena group I intron in knt gene, E. coli kanamycin selection, DiMSum; sequences stand for … in CUCUCU…GGAGGGAAAAGUUAUCAGGCAUGCACCUGGUAGCUAGUCUUUAAACCAAUAGAUUGCAUCGGUUUAAAAGGCAAGACCGUCAAAUUGCGGGAAAGGGGUCAACAGCCGUUCAGUACCAAGUCUCAGGGGAAACUUUGAGAUGGCCUUGCAAAGGGUAUGGUAAUAAGCUGACGGACAUGGUCCUAACCACGCAGCCAAGUCCUAAGUCAACAGAUCUUCUGUUGAUAUGGAUGCAGUUCACAGACUAAAUGUCGGUCGGGGAAGAUGUAUUCUUCUCAUAAGAUAUAGUCGGACCUCUCCUUAAUGGGAGCUAGCGGAUGAAGUGAUGCAACACUGGAGCCGCUGGGAACUAAUUUGUAUGCGAAAGUAUAUUGAUUAGUUUUGGAGUACUCGUGGUCG
Procedure, shortened: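 Six replicate transformations of E. coli BL21(DE3) with a pET-22b(+) library were grown overnight at 37°C or 30°C. The library randomised all eight P1ex-region intron nucleotides, the intron lying in the knt kanamycin-resistance gene, and plates were LB agar with or without 25 μg/mL kanamycin plus 100 μg/mL carbenicillin, 50 μM IPTG and 0.2% rhamnose. Pooled colonies were amplicon-sequenced on an Illumina HiSeq 2500, and fitness is the DiMSum error-weighted combination of wild-type-normalised replicate fold changes, kanamycin versus none.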

Row | Sequence | self-splicing fitness (ln) (30 °C) | self-splicing fitness (ln) (37 °C)
1 | AAGAAGCAAUAUUACGUCGC | -3.47 ± 0.19 | -2.2 ± 0.16
2 | GAAGAGCAAUAUUACGUAAG | -3.39 ± 0.21 | -1.5 ± 0.16
3 | UAGGAGCAAUAUUACGCUUG | -1.18 ± 0.32 | 0.65 ± 0.36
4 | CCCAAGCAAUAUUACGUUUU | -3.95 ± 0.18 | -3.26 ± 0.2
5 | GAAGAGCAAUAUUACGCGUC | -2.98 ± 0.42 | -2.5 ± 0.48
6 | CGUUAGCAAUAUUACGGAUU | -2.33 ± 0.23 | -2.21 ± 0.24
7 | AUGUAGCAAUAUUACGUGCA | -0.921 ± 0.13 | -1.01 ± 0.12
8 | CUCUAGCAAUAUUACGGUAU | -2.7 ± 0.16 | -2.77 ± 0.23
9 | UAUAAGCAAUAUUACGGACU | -2.12 ± 0.11 | -0.796 ± 0.11
10 | GGUCAGCAAUAUUACGACUG | -0.394 ± 0.15 | -0.586 ± 0.2
11 | AGUUAGCAAUAUUACGGCGC | -0.53 ± 0.22 | 0.14 ± 0.33
12 | UCCCAGCAAUAUUACGCGAA | -2.11 ± 0.16 | -1.07 ± 0.14
13 | CAAAAGCAAUAUUACGUCAU | -2.71 ± 0.17 | -2.48 ± 0.22
14 | GUCGAGCAAUAUUACGCCUU | -1.46 ± 0.28 | -1.77 ± 0.41
15 | AGCGAGCAAUAUUACGUUCC | – | -1.3 ± 0.24
16 | AAAUAGCAAUAUUACGGCUA | -0.705 ± 0.12 | -0.0895 ± 0.13
17 | AUUGAGCAAUAUUACGCCGG | -2.87 ± 0.33 | -2.53 ± 0.48
18 | GAAUAGCAAUAUUACGAGCU | -1.21 ± 0.081 | -0.335 ± 0.1
19 | ACGGAGCAAUAUUACGCUUU | -4.74 ± 0.38 | -1.98 ± 0.17
20 | AAAUAGCAAUAUUACGGGCA | -1.22 ± 0.11 | -0.312 ± 0.14
21 | GGCAAGCAAUAUUACGAACA | -2.07 ± 0.24 | -0.92 ± 0.18
22 | AAAGAGCAAUAUUACGUUAC | -2.94 ± 0.31 | –
23 | ACGGAGCAAUAUUACGCAAU | -2.81 ± 0.24 | -3.02 ± 0.43
24 | GGUCAGCAAUAUUACGACCU | -3.06 ± 0.3 | -2.07 ± 0.32
25 | AACGAGCAAUAUUACGCGGG | -3.64 ± 0.42 | -2.32 ± 0.22

Row | Sequence | self-splicing fitness (ln) (30 °C) | self-splicing fitness (ln) (37 °C)
26 | AAGAAGCAAUAUUACGUGUU | -2.15 ± 0.13 | -1.61 ± 0.13
27 | UUGUAGCAAUAUUACGGGGA | -1.98 ± 0.26 | -0.346 ± 0.17
28 | CUCAAGCAAUAUUACGCUAU | -3.05 ± 0.18 | -2.17 ± 0.16
29 | UUGAAGCAAUAUUACGUCGC | -3.48 ± 0.23 | -1.49 ± 0.24
30 | GUUUAGCAAUAUUACGCGAU | -3.12 ± 0.4 | -2.42 ± 0.42
31 | UCAGAGCAAUAUUACGGGCU | -4.78 ± 0.36 | -2.46 ± 0.25
32 | GUCUAGCAAUAUUACGCUUA | -0.87 ± 0.077 | 0.645 ± 0.097
33 | UAACAGCAAUAUUACGAAGA | -2.48 ± 0.14 | -1.33 ± 0.11
34 | ACCUAGCAAUAUUACGGUAU | -3.08 ± 0.14 | -1.44 ± 0.11
35 | GUUCAGCAAUAUUACGUUGC | -3.13 ± 0.12 | -1.7 ± 0.11
36 | GUGAAGCAAUAUUACGCGGG | -2.8 ± 0.19 | -1.55 ± 0.2
37 | GGCAAGCAAUAUUACGGAUC | -0.625 ± 0.096 | -0.11 ± 0.099
38 | CGCAAGCAAUAUUACGAAGG | -1.28 ± 0.098 | -0.75 ± 0.15
39 | GUUUAGCAAUAUUACGGUCU | -1.44 ± 0.12 | -1.05 ± 0.13
40 | ACAAAGCAAUAUUACGAUUC | -1.92 ± 0.085 | -0.67 ± 0.1
41 | UCAAAGCAAUAUUACGGUCA | -0.88 ± 0.1 | -0.6 ± 0.1
42 | ACUGAGCAAUAUUACGAGUG | -3.1 ± 0.12 | -2.76 ± 0.14
43 | AAGUAGCAAUAUUACGAAAG | -2.94 ± 0.27 | -2.17 ± 0.25
44 | UGGCAGCAAUAUUACGCGCA | -0.259 ± 0.14 | 0.284 ± 0.15
45 | CAAUAGCAAUAUUACGGGCC | – | -1.94 ± 0.29
46 | GCGAAGCAAUAUUACGUGCA | -1.21 ± 0.13 | -0.452 ± 0.097
47 | UGCAAGCAAUAUUACGACAA | -0.541 ± 0.088 | 0.237 ± 0.1
48 | UGCCAGCAAUAUUACGAGUU | -2.53 ± 0.17 | -0.56 ± 0.14
49 | AUAAAGCAAUAUUACGAAGU | -1.82 ± 0.088 | -1.01 ± 0.098
50 | GGGAAGCAAUAUUACGCCUU | -1.8 ± 0.17 | 0.48 ± 0.15

Row | Sequence | self-splicing fitness (ln) (30 °C) | self-splicing fitness (ln) (37 °C)
51 | ACUGAGCAAUAUUACGAUGA | -1.9 ± 0.091 | -1.59 ± 0.098
52 | UUUAAGCAAUAUUACGGUUC | -3.56 ± 0.21 | -2.47 ± 0.2
53 | GUAAAGCAAUAUUACGGAUU | -0.675 ± 0.079 | -0.288 ± 0.1
54 | UCAGAGCAAUAUUACGUCAU | -3.84 ± 0.35 | –
55 | UCAUAGCAAUAUUACGCAUA | – | -1.34 ± 0.47
56 | UGAUAGCAAUAUUACGAGCA | -0.12 ± 0.094 | -0.0253 ± 0.14
57 | UACUAGCAAUAUUACGCGAU | -2.84 ± 0.18 | -2.5 ± 0.18
58 | GUUGAGCAAUAUUACGUUGA | -3.13 ± 0.29 | -2.9 ± 0.33
59 | CCUUAGCAAUAUUACGAUUU | -4.25 ± 0.42 | -2.44 ± 0.35
60 | GGUGAGCAAUAUUACGCGGC | -2.2 ± 0.27 | -1.9 ± 0.28
61 | GUCUAGCAAUAUUACGGCGG | -2.66 ± 0.42 | -2.32 ± 0.4
62 | AGACAGCAAUAUUACGAACU | -0.675 ± 0.076 | 0.326 ± 0.096
63 | CAAGAGCAAUAUUACGUGAG | -1.44 ± 0.087 | -0.683 ± 0.11
64 | GACUAGCAAUAUUACGGGGG | -3.39 ± 0.27 | -1.46 ± 0.25
65 | UCCAAGCAAUAUUACGAUGU | -1.37 ± 0.057 | -0.338 ± 0.082
66 | CGUCAGCAAUAUUACGAUAC | -2.65 ± 0.14 | -1.38 ± 0.12
67 | ACACAGCAAUAUUACGAUAG | -2.96 ± 0.074 | -1.62 ± 0.069
68 | UACUAGCAAUAUUACGCUUG | -1.44 ± 0.1 | -1.64 ± 0.14
69 | CGCUAGCAAUAUUACGGUAC | -3.35 ± 0.23 | -1.95 ± 0.22
70 | AAAUAGCAAUAUUACGGUCU | 0.108 ± 0.076 | -0.388 ± 0.084
71 | UCUCAGCAAUAUUACGUACA | -1.81 ± 0.21 | -0.374 ± 0.15
72 | GAAAAGCAAUAUUACGGACA | -0.576 ± 0.056 | -0.269 ± 0.064
73 | ACUAAGCAAUAUUACGUCAC | -3.64 ± 0.19 | -2.91 ± 0.27
74 | AUCAAGCAAUAUUACGAACG | -1.61 ± 0.13 | -0.462 ± 0.13
75 | GUCAAGCAAUAUUACGCGCG | -2 ± 0.13 | -1.32 ± 0.15

Row | Sequence | self-splicing fitness (ln) (30 °C) | self-splicing fitness (ln) (37 °C)
76 | CGGAAGCAAUAUUACGUCGA | -2.59 ± 0.19 | -1.67 ± 0.18
77 | CGCAAGCAAUAUUACGGGAA | -2.96 ± 0.2 | -2.27 ± 0.19
78 | CUAGAGCAAUAUUACGCAAG | -1.8 ± 0.096 | -0.42 ± 0.11
79 | CCCCAGCAAUAUUACGGAUA | -3.92 ± 0.24 | -2.65 ± 0.16
80 | CUUGAGCAAUAUUACGGUUC | -3.56 ± 0.35 | -2.51 ± 0.36
81 | CCUGAGCAAUAUUACGGGUG | -2.65 ± 0.12 | -1.81 ± 0.14
82 | AAUAAGCAAUAUUACGAUUC | -2.44 ± 0.12 | -1.13 ± 0.15
83 | GACUAGCAAUAUUACGGGUG | -1.25 ± 0.078 | -0.949 ± 0.07
84 | GCGCAGCAAUAUUACGAUCA | -1.5 ± 0.14 | -0.594 ± 0.15
85 | GCACAGCAAUAUUACGCGAC | -1.75 ± 0.13 | -1.18 ± 0.16
86 | ACCAAGCAAUAUUACGGCUA | -0.574 ± 0.065 | -0.0302 ± 0.07
87 | UAAGAGCAAUAUUACGGGCG | -2.73 ± 0.16 | -2.29 ± 0.19
88 | UACGAGCAAUAUUACGCGGG | -2.83 ± 0.22 | -2.41 ± 0.45
89 | CAGGAGCAAUAUUACGGCUU | -3.93 ± 0.23 | -2.15 ± 0.21
90 | CUCUAGCAAUAUUACGUGCC | -3.23 ± 0.28 | -3.62 ± 0.39
91 | CGUAAGCAAUAUUACGCUUC | – | -2.52 ± 0.45
92 | UAGGAGCAAUAUUACGUAGG | -3.28 ± 0.2 | -1.15 ± 0.18
93 | GAAAAGCAAUAUUACGUUUU | -3.8 ± 0.18 | -2.4 ± 0.13
94 | UGCCAGCAAUAUUACGGCGA | -0.122 ± 0.072 | 0.211 ± 0.093
95 | AAGAAGCAAUAUUACGCCAC | – | -2.7 ± 0.48
96 | GAGCAGCAAUAUUACGGGAU | -3.27 ± 0.27 | -3.1 ± 0.23
97 | GACUAGCAAUAUUACGUCAG | -2.88 ± 0.21 | -3.7 ± 0.37

Reference: the supplement of paper PMC7877785
